Results from the Human Domainome abundance scans (Beltran et al. 2025).

B1: Zinc finger homeobox protein 4, residues 2562 to 2617; numbered along this chain, Q86UP3 (parent)
chain: RLRTTITPEQLEILYEKYLLDSNPTRKMLDHIAREVGLKKRVVQVWFQNTRARERK

Variants of: B1
Experiment: abundance fitness (aPCA) (normalised: wild type 0, dead -1); higher = more abundant; growth selection in yeast, the domain comes from the species named
Settings: Homo sapiens

Abundance fitness: each site, then its substitutions
L29: I -0.033 | K -0.621 | M -0.429 | P -0.752 | Q -0.124 | R -0.346 | S -0.498 | T -0.228 | V -0.024 | W -0.004 | Y -0.239
D30: A -0.108 | C -0.431 | E -0.088 | F -0.372 | G -0.052 | H -0.269 | I -0.056 | L -0.296 | M -0.352 | P -0.579 | Q -0.102 | R -0.144 | S -0.062 | T 0.002 | V -0.292 | W -0.173 | Y 0.003
H31: A 0.042 | C 0.052 | D 0.05 | E 0.426 | F -0.266 | G -0.004 | I 0.205 | K 0.146 | L -0.112 | M -0.169 | N -0.335 | Q 0.176 | R -0.129 | S 0.233 | T 0.206 | W -0.119 | Y -0.201
I32: A -0.786 | C -0.518 | E -0.998 | F -0.377 | G -0.945 | K -0.796 | L -0.15 | M -0.366 | Q -1.24 | R -1.08 | S -1.27 | T -0.405 | V -0.204 | W -0.23 | Y -0.208
A33: C -0.003 | D -0.526 | E -0.352 | G -0.344 | H -0.86 | L -0.732 | P -0.563 | Q -0.669 | R -0.541 | S -0.158 | T -0.331 | W -0.696
R34: A 0.195 | C -0.223 | D -0.536 | E 0.244 | F -0.101 | G 0.123 | H -0.162 | I -0.43 | K 0.004 | L -0.011 | M -0.053 | N 0.161 | P -0.638 | Q 0.107 | S 0.17 | T -0.02 | W -0.139 | Y 0.245
E35: A -0.235 | C -0.393 | D -0.278 | F -0.564 | G -0.258 | H -0.302 | I -0.163 | L -0.25 | M -0.279 | N -0.358 | Q -0.283 | R -0.654 | S -0.158 | T -0.254 | V -0.306 | W -0.597 | Y -0.493
V36: A -0.103 | C -0.223 | D -0.27 | E -0.671 | F -0.623 | G -0.812 | H -0.418 | I -0.398 | K -0.726 | L -0.121 | M -0.134 | N -0.415 | P -0.649 | R -1.03 | S 0.019 | W -0.638 | Y -0.586
G37: A -0.258 | C -0.006 | D -0.065 | H -0.471 | I -0.828 | K -0.169 | L -0.71 | M -0.465 | N 0.107 | P -0.812 | Q -0.051 | R -0.369 | S -0.359 | V -0.643 | W -1.1 | Y -0.962
L38: A -0.508 | C -0.301 | D -0.718 | E -0.488 | G -0.915 | I -0.025 | K -0.254 | M -0.132 | P -0.787 | Q -0.755 | R -0.818 | S -0.846 | T -0.933 | W -0.884
K39: A 0.234 | C 0.142 | D 0.11 | F -0.862 | G 0.117 | H -0.072 | I -0.784 | L 0.072 | M -0.405 | N -0.168 | P 0.196 | Q 0.032 | R -0.126 | S 0.278 | T 0.284 | V -0.01 | W -0.779 | Y 0.406
K40: A 0.163 | C 0.108 | D -0.097 | E 0.361 | F 0.15 | G 0.103 | H -0.218 | I 0.143 | L 0.264 | M 0.243 | P 0.162 | R 0.057 | S 0.218 | T 0.199 | V 0.264 | W -0.002 | Y 0.518
R41: A 0.257 | C 0.068 | D 0.001 | E 0.517 | F -0.044 | G 0.264 | H 0.163 | I -0.038 | L 0.115 | N 0.248 | P 0.246 | Q 0.476 | S 0.306 | T 0.213 | V 0.013 | W -0.102 | Y 0.037
V42: A -0.197 | C -0.179 | D 0.23 | E 0.273 | G -0.533 | H -0.079 | K -0.302 | L -0.126 | M -0.103 | Q -0.038 | R -0.413 | S -0.348 | T -0.187 | Y -0.598
V43: A -0.462 | C -0.505 | D -0.778 | E -0.925 | F -0.861 | G -0.89 | I -0.147 | K -0.965 | L -0.306 | N -0.829 | P -0.862 | R -0.974 | S -0.723 | T -0.553 | W -0.78
Q44: A -0.011 | C 0.246 | D 0.322 | E 0.298 | F -0.416 | G -0.031 | H -0.101 | I -0.28 | K -0.035 | L -0.128 | M -0.132 | N -0.131 | R -0.191 | S -0.248 | T -0.053 | V -0.156 | W -0.045 | Y 0.202
V45: A -0.243 | C -0.352 | D 0.192 | E 0.535 | F -0.738 | G -0.198 | H -0.262 | I -0.057 | K -0.249 | L -0.111 | N -0.384 | P -0.754 | Q -0.568 | R -0.402 | S -0.309 | T -0.045 | W -0.439 | Y -0.036
W46: C -0.663 | D -0.536 | E -0.549 | G -0.752 | H -0.878 | I -0.939 | K -1.03 | L -0.887 | M -0.815 | P -0.802 | Q -1.05 | S -0.91 | T -0.756 | V -0.723
F47: A -0.983 | D -0.46 | E -0.806 | G -0.913 | H -0.865 | I -0.765 | K -1 | L -0.74 | N -0.905 | P -0.885 | Q -1.18 | R -0.969 | T -0.789 | V -0.974 | W 0.049 | Y -0.072
Q48: A 0.2 | C -0.287 | D 0.392 | E 0.433 | F -0.389 | G 0.178 | H -0.139 | I -0.693 | K -0.006 | L -0.611 | M -0.16 | N -0.216 | P -1.02 | R -0.166 | S -0.049 | T 0.008 | V -0.152 | W -0.556 | Y -0.168
N49: A 0.043 | C -0.282 | D -0.043 | E 0.253 | G -0.182 | H -0.423 | I 0.12 | K -0.489 | L -0.25 | M 0.029 | P -0.73 | Q -0.104 | R -0.477 | S -0.009
